Measurements: patent publication US20220112525A1, “BIOSYNTHESIS OF VANILLIN FROM ISOEUGENOL” (Conagen Inc., priority 2019, published 2022)

Assays:
[1] = Enzyme assay in vitro with 4,4'-dihydroxy-3,3'-dimethoxystilbene as substrate, vanillin detected by HPLC; type: biochemical; conditions: 30° C., 50 mM Tris-HCl pH 8.5, substrate 200 μM
Description: The activity of FfLSD was determined by two substrates, 4,4′-dihydroxy-3,3′-dimethoxystilbene and isoeugenol, respectively. For measuring the activity toward 4,4′-dihydroxy-3,3′-dimethoxystilbene, the activity was assayed at 30° C. in 2.5 ml of 50 mM Tris-HCl buffer (PH 8.5) containing suitable amounts of enzyme solution. The enzyme reaction was started by addition of substrates dissolved in 10 μL of N,N-dimethylformamide (DMF) to a final concentration of 200 μM. The reaction product, vanillin, was detected with HPLC analysis.

[2] = Enzyme assay in vitro with isoeugenol as substrate, formation of vanillin by HPLC; type: biochemical; conditions: 10 mM isoeugenol, 10 min
Description: The activity was also measured with isoeugenol by measuring the formation of vanillin. The reaction mixture contained 10 mM isoeugenol, 100 mM potassium phosphate buffer (pH 7.0), 10% (v/v) ethanol and an appropriate amount of enzyme, in a total volume of 1 ml. The reaction was started, by adding isoeugenol as ethanol solution, carried out at 30° C. for 10 min with reciprocal shaking (160 strokes min^−1) and stopped with 1 ml of methanol. After centrifugation at 21,500, the supernatant was analyzed by HPLC for the determination of isoeugenol, vanillin, vanillyl alcohol. FfLSD enzyme treated in boiling water for 5 minutes was used as the negative control.
Almost all isoeugenol added to the reaction mixture was converted to vanillin (top panel). As expected, no vanillin was produced with the negative control (bottom panel).

B1: FfLSD: putative lignostilbene-α, β-dioxygenase from the fungus Fusarium fujikuroi, 522 amino acids (SEQ ID NO: 2), recombinant, His-tagged (protein, listed as Fusarium fujikuroi)
chain: MSAPEEHHGLKSKWPQAFDLAGSNSPCRIEGEIGDLVVLGEIPPAIDGTFYRVMCDPFVPPHPDNVPLDGDGHVSAFRIYNGRVDMKIKYVETERYKLERKAGKALFGLYRNPFTHHPCVRAAVDSTANTNMVYWADRLLALKESALPYEMHPDTLETLCYDPFGGQVKAKAFTAHPKIDPFSDELVVYGYEAKGLATRDIVIYSLDKNGIKHDEQWIESPWCAPIHDCVITPNFIVLILWPFEASVERMKAGKQHWAWDYSLPATFIVVPRRKTSKIPASWKQGEHRVYHWKNCMNIHAGSAWEEDNGKLYLETSRVHDNAFPFFPPVDGRMPAPDAKADFVRWEIDLNAPSGTQMADPEVILDVPSEFPRIDERFMTKRNEYLFLNVFIPETSQGGTNIFHGLNGLAMHNHSTGETKWFFAGKDSLVQEPIFIPRTADAPEGDGWVIAMLERRVANRSELVVLDTREFEKPVAFIQLPMHLKAQVHGNWIDSRTRASTEAIVRQIGEVKVSARGALEPLA
modifications: His tag
activity toward 4,4′-dihydroxy-3,3′-dimethoxystilbene [1]: did not show activity
isoeugenol added to the reaction mixture converted to vanillin ([2]; pH 7.0, 30° C., HPLC (FIG. 6)): Almost all
activity toward isoeugenol ([2]; potassium phosphate pH 7.0, 30° C.): high activity
